Experimental data as given in patent US20080305111A1, “Anti-C35 antibodies for treating cancer” (VACCINEX, INC., priority 2006, published 2008).
“Also recorded” adds a separate entry of the source.

T1: recombinant human C35 (rhC35) (Homo sapiens, UniProt Q9BRT3)
T1 construct: made in house; host or cells: E. coli
T1 sequence (Q9BRT3 1-115): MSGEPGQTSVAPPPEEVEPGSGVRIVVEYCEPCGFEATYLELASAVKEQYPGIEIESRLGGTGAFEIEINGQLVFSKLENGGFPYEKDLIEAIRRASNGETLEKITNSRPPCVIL

T2: C35 (Homo sapiens, UniProt Q9BRT3)
T2 sequence (Q9BRT3 1-115): T1 sequence (Q9BRT3 1-115)

T3: rC35 (Homo sapiens, UniProt Q9BRT3)
T3 construct: made in house; host or cells: E. coli
T3 sequence (Q9BRT3 1-115): T1 sequence (Q9BRT3 1-115)

B1: 1B3: mouse monoclonal anti-C35 antibody from hybridoma 1B3.6.1, gamma1 isotype, kappa light chain (SEQ ID NO:8, 10) (antibody, V domains shown)
VH: EVQLQESGPSLVKPSQTLSLTCSVTGDSITSGYWNWIRKFPGNKLEYVGYISYSGGTYYNPSLKSRISITRDTSKNHYYLQLNSVTTEDTATYYCARGAYYGGAFFPYFDVWGAGTTVTVSS
VL: DVQITQSPSFLAASPGETITINCRASKYISKHLVWYQEKPGETKKLLIYSGSTLQSGLPSRFSGSGSGTDFTLTISSLEPEDFAMYYCQQHNEYPLTFGAGTKLELK
B2: MAb 163: fully human C35-specific antibody; VH from clone H730 (SEQ ID NO:62), VL from clone L74 (SEQ ID NO:66) (antibody, V domains shown)
VH: EVQLVESGGGLVKPGGSLRLSCEVSGITFSNAWMSWVRQAPGKGLEWVGRIKSKTDGGTTDYAAPVKGRFTISRDDSKNTLYLQMNSLKTEDTAVYYCSIGYYYDSSFKYGMDVWGQGTTVTVSS
VL: DIQMTQSPATLSASVGDRVTITCRASQSISRWLAWYQQKPGQAPKVLIYKASTLQSGVPSRFSGSGSGTEFSLTINSLQPDDFATYYCQQYYSYLRTFGQGTKLEIK
modifications: VH of MAb163 (H730); VL of MAb163 (L74)
B3: 1F2: mouse monoclonal anti-C35 antibody from hybridoma 1F2.4.1, gamma1 isotype, kappa light chain (SEQ ID NO:4, 6) (antibody, V domains shown)
VH: DVQLQESGPGLVKPSQSLSLTCSVTGYSITSGYFWNWIRQFPGNKLEWMGYISYDGSNNSNPSLKNRISFTRDTSKNQFFLKFNSVTTDDSAAYYCTRGTTGFAYWGQGTLVTVSA
VL: QIVLTQSPAIMSASPGEKVTISCSASSSVSYMNWYQQKPGSSPKPWIYHTSNLASGVPARFSGSGSGTSYSLTISSMEAEDAATYYCQQYHSYPPTFGGGTKLEIK

Columns and labels:
[1] = molecular target: T1, recombinant human C35 (rhC35); test: Epitope mapping by Lys-C digestion of rhC35 and Western blot; assay type: binding; settings: residues numbered from amino terminal methionine of native human C35
Text: To localize the epitope specificity of 1B3 and 1F2 antibodies, recombinant human C35 (rhC35) synthesized with a 6×His tag in E. coli was digested with Lys-C endoproteinase. This enzyme cuts after lysine (K) residues in the protein sequence. […] The full sequence of rhC35, including the amino terminal 6×His tag addition is shown. Amino acid positions are numbered relative to the amino terminal methionine (M) of the native human sequence. Note that digestion at the first and third lysine followed by negatively charged residues is inefficient and some longer combination fragments may be generated. Lys-C endoproteinase was added to purified rhC35 at a 50:1 weight ratio and incubated for 18 hours at 37° C. in 25 mM Tris, pH 8.0. The digest was ethanol precipitated and resolubilized in reducing Tricine sample buffer. […] Peptides were transferred to PVDF membranes and the blots depicted in FIG. 10 were either stained with Coomassie blue (lanes 1-3 of both left and right panels) to detect all peptides or processed with one of the following: 1 μg/ml of the murine 1F2 anti-C35 antibody followed by alkaline phosphatase conjugated goat anti-mouse antibody (lane 4 of left panel); 1 μg/ml of the 1B3 anti-C35 immunoglobulin variable regions linked to human constant regions (MAb11) followed by alkaline phosphatase conjugated goat anti-human antibody (lane 5 of left panel); or anti-6×His tag mouse antibody (Amersham) followed by alkaline phosphatase conjugated goat anti-mouse antibody (lane 4 and 5 of right panel). BCIP/NBT substrate was added and developed to detect the secondary reagents. Molecular weight markers are indicated in the flanking lanes of both panels.
In FIG. 10, the indicated band A migrates at the position of undigested rhC35. Note that band B stains with 1F2 but not MAb11 (1B3) anti-C35 antibody while band C stains with neither 1F2 nor MAb11 (1B3) antibody. Since bands B and C both do stain with anti-6×His tag antibody to the 6×His tag at the amino terminus of rhC35, it may be concluded that both fragments lack C-terminal peptide fragments. […]

[2] = test system: C35-positive MDA231 tumor cells; test: Two C35 antibodies and paclitaxel in MDA231 xenograft (FIG. 12); assay type: in vivo, Swiss nude mice; settings: antibody 20 mg/kg i.v. twice weekly for three weeks, paclitaxel 30 mg/kg i.p. days 17 and 24
Procedure: As illustrated in FIG. 12 and described in this example, methods of treating cancer directed to the administration of two C35 antibodies in combination with a chemotherapeutic agent were tested. Five million C35-positive MDA231 tumor cells were implanted subcutaneously in the mammary fat pads of Swiss nude mice. Groups of at least five mice each received the following treatments, beginning on day 17 post-graft: • 1. No Treatment (Control Group) • 2. 30 mg/kg i.p. injection of paclitaxel on days 17 and 24. • 3. 30 mg/kg i.p. injection of paclitaxel on days 17 and 24, together with 400 μg per i.v. injection (20 mg/kg) of 1F2 murine monoclonal antibody starting on day 17 and continuing twice weekly for three weeks. • 4. 30 mg/kg i.p. injection of paclitaxel on days 17 and 24, together with 400 μg per i.v. injection (20 mg/kg) of […] murine monoclonal antibody starting on day 17 and continuing twice weekly for three weeks. • 5. […]
Average mouse tumor volume was measured at various time points post-graft. Two measurements were taken with vernier calipers on each tumor; tumor volume was calculated using the formula (length×width^2)/2. […]

[3] = molecular target: T2, C35; test: Characterisation of hybridoma antibodies (ELISA, Western blot, immunohistochemistry, competitive binding ELISA); settings: for binding to recombinant C35 protein: ELISA and Western Blot
Procedure: Hybridoma cell lines 1F2.4.1 and 1B3.6.1, specific for C35 polypeptides, were prepared using hybridoma technology. (Kohler et al., Nature 256:495 (1975); Kohler et al., Eur. J. Immunol. 6:511 (1976); Kohler et al., Eur. J. Immunol. 6:292 (1976); Hammerling et al., in: Monoclonal Antibodies and T-Cell Hybridomas, Elsevier, N.Y., pp. 571-681 (1981)). Briefly, hybridoma cell lines were generated using standard PEG fusion to the non-secreting myeloma cell line NS-1 (P3/NS1/1-AG4-1, ATCC #TIB-18) of splenocytes from BALB/c mice immunized with syngeneic BCA34 fibroblast tumor cells transduced to over express C35. Following PEG fusion to NS-1, the hybridomas were grown in methylcellulose semi-solid media. Approximately 2 weeks later, hybridoma colonies were isolated into 96 well plates and individual supernatants were tested for reactivity with C35 by ELISA, Western blot, and immunohistochemistry. Positive hybridoma colonies were subcloned and screened for reactivity twice to ensure clonality. Antibodies were isolated from hybridoma supernatants by protein G affinity purification using standard methods. […] In addition, the present inventors developed intracellular staining flow cytometry assays for quantitative analysis using antibodies from hybridoma cell line 1F2 conjugated to Alexa-647 fluorochrome. Each of these antibodies is distinct, yet both are specific for C35 protein. It is possible to immunoprecipitate C35 protein from cell lysates with either of these antibodies and detect with the other.

[4] = molecular target: T3, rC35; test: Biacore affinity testing of MAb 163 (1:1 kinetic model); assay type: binding
Procedure: To measure affinity using Biacore, a CM5 chip surface was prepared by immobilizing Goat Anti-Human IgG Fc through amine coupling. The monoclonal human antibody MAb 163 was then captured by flow over the chip containing the Goat Anti-Human IgG. The rC35 was then serial diluted into two separate series to cover a wide range of concentration points and binding efficiencies, and then the C35 was allowed to flow over the chip containing bound MAb 163. The binding was recorded in a series of sensograms. The binding was evaluated using BIAevaluation software, where the Ka and Kd were calculated by fitting the curves and correcting for Mass Transfer.

[5] = test system: C35-positive 21MT1-D cells; test: Immunofluorescence staining (FMAT), C35-positive cells; assay type: cell-based, human; settings: MAb163 at 3, 1, 0.3 or 0.1 μg/ml
[6] = test system: C35-negative H16N2 cells; test: Immunofluorescence staining (FMAT), C35-negative cells; assay type: cell-based, human; settings: MAb163 at 3, 1, 0.3 or 0.1 μg/ml
[7] = molecular target: T2, C35; test: Western blot, tumor specific binding of MAb 163; design: endogenous in cells; host or cells: 21MT1-D human breast tumor cell line
[8] = molecular target: T2, C35; test: Immunoprecipitation of C35 from 21MT1-D cell lysates; assay type: binding; design: endogenous in cells; host or cells: 21MT1-D human breast tumor cell line; settings: detected with rabbit anti-C35 polyclonal sera; IgG negative control did not
Procedure: The number “15” indicates the molecular weight marker at 15 kDalton. The number “163” indicates the mAb163 monoclonal antibody. “Neg IgG” indicates an IgG negative control antibody.
Briefly, 10 ml of MAb163 in CHO cell supernatant was buffer-exchanged into PBS and concentrated to 1 ml. Concentrated MAb 163 was added to protein A beads for greater than one hour. After washing, protein A/MAb163 was added to C35-positive 21MT1-D cell lysates for 2 hours. After washing the beads, the protein was eluted with reducing sample buffer at 100° C.
Immunoprecipitated samples were analyzed by Western blot using rabbit anti-C35 polyclonal sera. As shown in the left lane of FIG. 22, lysate from 100,000 21MT1-D cells was included on the Western blot as a control. The number “15” in FIG. 22 indicates a molecular weight marker at 15 kDalton.

KA ([4]; BIAevaluation, 1:1 kinetic model) [M⁻¹]	ka ([4]; MAb 163 captured on anti-human IgG Fc CM5 chip, rC35 in flow) [M⁻¹ s⁻¹]	immunoprecipitation of C35 [8]	Molecule	epitope specificity [1]	tumor growth, one antibody with paclitaxel [2]	competitive binding ELISA [3]	binding to recombinant C35 protein [3]	immunofluorescence staining [5]	immunofluorescence staining [6]	binding in Western blot, tumor cell lysate ([7]; 21MT1-D human breast tumor cell lysate, MAb163 4.4 ug/ml)	binding in Western blot, normal cell line ([7]; H16N2 normal immortalized human breast cell line lysate)	binding in Western blot, recombinant C35 ([7]; rC35 purified from E. coli, 100 ng/lane)	immunohistochemistry staining ([3]; formalin fixed, paraffin embedded)
			B1	specific for an epitope within C35 residues 105-115	neither the 1F2 nor 1B3 administered individually with the chemotherapeutic agent paclitaxel was effective in inhibiting tumor growth	bind different epitopes of the C35 protein	specifically bind recombinant C35 protein in ELISA and Western Blot assays						
2.96e+08	284000	immunoprecipitated C35 protein	B2	recognizes an epitope within amino acid residues 48 to 87 of C35; also recorded: specific for an epitope within amino acid residues 48 to 87 of C35				show dose-dependent immunofluorescence	do not show any immunofluorescence staining	binds native C35 monomer in tumor cell lysate	binding is absent in the normal cell line	binds the rC35 monomer (16 kD), dimer (˜32 kD), and larger aggregates	
			B3	specific for an epitope within the C35 residues 48-104	neither the 1F2 nor 1B3 administered individually with the chemotherapeutic agent paclitaxel was effective in inhibiting tumor growth	bind different epitopes of the C35 protein	specifically bind recombinant C35 protein in ELISA and Western Blot assays						specifically stain formalin fixed, paraffin embedded C35 positive tumors and cell lines
